Results taken from patent US10266547B2, “Thieno[2,3-e]indole derivatives as new antitumor agents” (NERVIANO MEDICAL SCIENCES S.R.L., priority 2013, dated 2019).

Target: cathepsin B (Homo sapiens, UniProt P07858)
Experiment: Release of a drug moiety from a conjugate in presence of cathepsin
Type: in vitro ADME
Settings: 0.2 units cathepsin B, sodium acetate buffer pH 5.5, 1 mM Cys, 2 hours at 40° C., HPLC ESI-MS
Experimental: As an example, that is not intended to limit the scope of the invention, the release of a compound of formula (II) from the conjugate was performed in presence of cathepsin as reported below.
The conjugate A1 was incubated with 0.2 units of cathepsin B in sodium acetate buffer pH 5.5 and 1 mM Cys for 2 hours at 40° C.

In the case of `Cc1cc2c(OC(=O)N(C)CCN(C)C(=O)OCc3ccc(NC(=O)[C@H](CCCNC(N)=O)NC(=O)[C@@H](NC(=O)CCCCCN4C(=O)CC(SC[C@H](N)C(=O)O)C4=O)C(C)C)cc3)cc3c(c2s1)[C@H](CCl)CN3C(=O)c1cc2cc(OCCN3CCCC3)ccc2[nH]1` (stereo partly shown) [A1], the “release of the compound of formula (II) from the conjugate (breaking of the Z peptidic linker)” value is reported as “Disappearance of the conjugate A1 and release of the corresponding compound of formula (II)”.
